Data from PMC5222566, “The Ciliopathy-Associated Cep104 Protein Interacts with Tubulin and Nek1 Kinase” (Structure(London, England:1993), 2017).

Biological target: tubulin (Cytoskeleton) (UniProt P02550 1-451)
Assay: SEC-MALS; TOG protein mixed with reconstituted tubulin, each ~42 uM, 1:1; 25 mM Tris-HCl pH 7.5, 100 mM NaCl, 1 mM MgCl2, 1 mM EGTA
Settings: both partners purified

B1: human Cep104 TOG domain (Cep104^367-685), wild type (domain or fragment, UniProt O60308 367-685, looked up)
chain: DPHPKINAESLPYDERPLPAIRKHYGEAVVEPEMSNADISDARRGGMLGEPEPLTEKALREASSAIDVLGETLVAEAYCKTWSYREDALLALSKKLMEMPVGTPKEDLKNTLRASVFLVRRAIKDIVTSVFQASLKLLKMIITQYIPKHKLSKLETAHCVERTIPVLLTRTGDSSARLRVTAANFIQEMALFKEVKSLQIIPSYLVQPLKANSSVHLAMSQMGLLARLLKDLGTGSSGFTIDNVMKFSVSALEHRVYEVRETAVRIILDMYRQHQASILEYLPPDDSNTRRNILYKTIFEGFAKIDGRATDAEMRARRK
notes: The crystallised TOG construct (392-676, PDB 5LPH) has other limits; also called WT TOG; source: E. coli Rosetta, purified (Ni-NTA, PreScission cleavage, HiTrap SP); not shown: His6, N-terminal, cleaved
stoichiometry N: 1
